Reference: US20100125055A1 (Dana-Farber, published 2010)
Where no end group is shown, it is not given here.

B1: His-tagged MUC1 cytoplasmic domain (other)
chain: CQCRRKNYGQLDIFPARDTYHPMSEYPTYHTHGRYVPPSSTDRSPYEKVSAGNGGSSLSYTNPAVAATSANL
notes: Purified recombinant protein; It forms oligomers; also called His-MUC1-CD; His-tagged MUC1-CD; not shown: His tag
B2: MUC1/CQC peptide (peptide)
peptide: CQCRRKNYGQLDIFP
modifications: cysteine pairing not given here; also: poly-D-Arg transduction domain, length and attachment end not given here
notes: Synthetic peptide (MIT Biopolymer Laboratory); also called CQC long (15-mer); not shown: The poly-D-Arg cell transduction domain

What was measured:
[1] = molecular target: the molecule itself; assay: self-association of purified His-MUC1-CD (1.5 mg/ml); non-reducing SDS-polyacrylamide gel, immunoblot with anti-MUC1-C; incubated 1 h with PBS, 200 uM MUC1/CQC or 200 uM MUC1/AQA
Experimental: (§1) Schematic representation of the MUC1-C subunit and the 72-amino acid sequence of MUC1-CD are shown. The N-terminal 15 amino acids (shaded sequence) MUC1/CQC and mutated MUC1/AQA peptides were synthesized with the poly-dArg transduction domain. (FIG. 1B) His-MUC1-CD (1.4 mg/ml) was immobilized on a sensor chip in a BIAcore. MUC1/CQC was injected over the chip at 10 μM. Raw binding data were analyzed by BIAevaluation software version 3.0 and fit to a 1:1 Languir binding model. (FIG. 1C) Purified His-MUC1-CD (1.5 mg/ml) was incubated with PBS, 200 μM MUC1/CQC or 200 μM MUC1/AQA for 1 h at room temperature. The proteins were separated in a non-reducing SDS-polyacrylamide gel and analyzed by immunoblotting with anti-MUC1-C. (FIG. 1D) 293 cells were transiently transfected to express an empty vector or GFP-MUC1-CD and Flag-MUC1-CD. At 48 h after transfection, the cells were treated with 5 μM MUC1/CQC or MUC1/AQA for 3 d. The cells were then harvested for immunoblotting with anti-MUC1-C (left panel). Whole cell lysates were also precipitated with anti-Flag and the precipitates were immunoblotted with the indicated antibodies (right panels).

[2] = molecular target: B1; assay: BIAcore (SPR), His-MUC1-CD immobilized, peptide injected at 10 uM, 1:1 Langmuir fit
Experimental: as §1, with “The” for “Schematic representation of the MUC1-C subunit and the 72-amino acid sequence of MUC1-CD are shown. The”
Effects of the MUC1/CQC peptide on MUC1 oligomer formation. The MUC1 cytoplasmic domain (MUC1-CD) contains a CQC motif that is necessary for the formation of oligomers and nuclear localization (Leng et al., 2007). […] Purified His-tagged MUC1-CD forms oligomers as detected by electrophoresis in polyacrylamide gels (FIG. 1C).

| Binder | binding result [1] | Kd [2] [nM] |
| --- | --- | --- |
| B1 | binds | – |
| B2 | – | 30 |
